These results are taken from patent US20040014159.

In series [1] the test system is T1, bis-SPK-2 (KKALRRASLKG-R110-GKLSARRLAKK).
T1 sequence: KKALRRASLKG

Series [2] concerns T2, bis-STP-R110 (RRAT(PO3)VA-R110-AV(PO3)TARR).
T2 sequence: RRATVA

Series [3] concerns T3, bis-PTK5p-R110 (YIY(PO3)GAFKRRG-R110-GRRKFAG(PO3)YIY).
T3 sequence: YIYGAFKRRG

The subject of series [4] is T4, LRRASLG-R110-GLSARRL, bis-rhodamine peptide kinase substrate (bis-kemptide).
T4 sequence: LRRASLG

Series [5] concerns T5, bis-SPK-4 (KKALRKASVRG-R110-GRVSAKRLAKK).
T5 sequence: KKALRKASVRG

Series [6] concerns T6, kemptide-AMC (LRRASLG-AMC).
T6 sequence: LRRASLG

Series [7] concerns T7, bis-PTK-5 (YIYGAFKRRG-R110-GRRKFAGYIY).
T7 sequence: YIYGAFKRRG

Series [8] addresses T8, bis-PTK5p-R110 (YIY(PO3)GAFKRRG-R110-GRRKFAG(PO3)YIY) (not fully specified).
T8 chain: YIYGAFKRRG

Regarding AKT, the “fluorescence output after aminopeptidase M” value in series [1] was “the change in output fluorescence in each assay was inversely proportional to the amount of enzyme in the reaction (Results not shown)”. As to PKC, in series [1], the “fluorescence output after aminopeptidase M” value is “the change in output fluorescence in each assay was inversely proportional to the amount of enzyme in the reaction (Results not shown)”.

In the case of PKG, in series [1], the “fluorescence output after aminopeptidase M” value is listed as “the change in output fluorescence in each assay was inversely proportional to the amount of enzyme in the reaction (Results not shown)”. In the case of PP1, the “fluorescence output after aminopeptidase M” value in series [2] was “The results obtained show excellent proportionality between the fluorescence output and dephosphorylation of the substrate”. Consider PP2B, for which the “fluorescence output after aminopeptidase M” value in series [2] is “The results obtained show excellent proportionality between the fluorescence output and dephosphorylation of the substrate”. Consider PP2C, for which, in series [2], the “fluorescence output after aminopeptidase M” value was “The results obtained show excellent proportionality between the fluorescence output and dephosphorylation of the substrate”.

On to YOP 51, for which the “fluorescence output after aminopeptidase M” value in series [3] is reported as “A similar profile was obtained with other tyrosine phosphatases, including YOP 51”. On to “catalytic subunit of cAMP-dependent protein kinase (PKA)”, for which, in series [4], the “fluorescence output (RFU) after aminopeptidase M” value is recorded as “there is a corresponding decrease in fluorescence output with increasing concentration or units of enzyme in the reaction”. In addition, the “kinase reaction, fluorescence output after aminopeptidase M” value in series [1] and in series [5] was “the peptide substrate bis-SPK-2 is a better substrate for PKA than the peptide substrate bis-SPK-4” in each case. Further, the “fluorescence output (AMC) after aminopeptidase M, with and without 50 uM ATP” value in series [6] is on record as “In the presence of ATP, the fluorescence output decreased in proportion to the increase in amount of enzyme”.

In the case of serine/threonine phosphatase PP2A, in series [2], the “fluorescence output after Aminopeptidase II” value is on record as “an increase in phosphatase activity resulted in an increase in fluorescence”; the “fluorescence output after aminopeptidase M” value was “PP2A dephosphorylated the substrate efficiently, and fluorescence increased proportionally to the amount of enzyme in the reaction”. tyrosine kinase lck: the “fluorescence output after aminopeptidase M, with and without 100 uM ATP” value in series [7] is “where 100 um ATP was included the decrease in fluorescence output was proportional to the increase in amount of enzyme in the reaction, and little or no change was observed in the absence of ATP”.

B1: PTP-1B, soluble tyrosine phosphatase (enzyme, UniProt P18031 1-435, looked up, species assumed)
Tyrosine-protein phosphatase non-receptor type 1: MEMEKEFEQIDKSGSWAAIYQDIRHEASDFPCRVAKLPKNKNRNRYRDVSPFDHSRIKLHQEDNDYINASLIKMEEAQRSYILTQGPLPNTCGHFWEMVWEQKSRGVVMLNRVMEKGSLKCAQYWPQKEEKEMIFEDTNLKLTLISEDIKSYYTVRQLELENLTTQETREILHFHYTTWPDFGVPESPASFLNFLFKVRESGSLSPEHGPVVVHCSAGIGRSGTFCLADTCLLLMDKRKDPSSVDIKKVLLEMRKFRMGLIQTADQLRFSYLAVIEGAKFIMGDSSVQDQWKELSHEDLEPPPEHIPPPPRPPKRILEPHNGKCREFFPNHQWVKEETQEDKDCPIKEEKGSPLNAAPYGIESMSQDTEVRSRVVGGSLRGAQAASPAKGEPSLPEKDEDHALSYWKPFLVNMCVATVLTAGAYLCYRFLFNSNT
In the case of B1, the “fluorescence output after aminopeptidase M” value in series [3] was “the increase in the fluorescence output is proportional to the amount of phosphatase added per reaction”.

B2: CD45, recombinant human receptor protein tyrosine phosphatase (protein)
chain: SCNLDEQQELVERDDEKQLMNVEPIHADILLETYKRKIADEGRLFLAEFQSIPRVFSKFPIKEARKPFNQNKNRYVDILPYDYNRVELSEINGDAGSNYINASYIDGFKEPRKYIAAQGPRDETVDDFWRMIWEQKATVIVMVTRCEEGNRNKCAEYWPSMEEGTRAFGDVVVKINQHKRCPDYIIQKLNIVNKKEKATGREVTHIQFTSWPDHGVPEDPHLLLKLRRRVNAFSNFFSGPIVVHCSAGVGRTGTYIGIDAMLEGLEAENKVDVYGYVVKLRRQRCLMVQVEAQYILIHQALVEYNQFGETEVNLSELHPYLHNMKKRDPPSEPSPLEAEFQRLPSYRSWRTQHIGNQEENKSKNRNSNVIPYDYNRVPLKHELEMSKESEHDSDESSDDDSDSEEPSKYINASFIMSYWKPEVMIAAQGPLKETIGDFWQMIFQRKVKVIVMLTELKHGDQEICAQYWGEGKQTYGDIEVDLKDTDKSSTYTLRVFELRHSKRKDSRTVYQYQYTNWSVEQLPAEPKELISMIQVVKQKLPQKNSSEGNKHHKSTPLLIHCRDGSQQTGIFCALLNLLESAETEEVVDIFQVVKALRKARPGMVSTFEQYQFLYDVIASTYPAQNGQVKKNNHQEDKIEFDNEVDKVKQDANCVNPLGAPEKLPEAKEQAEGSEPTSGTEGPEHSVNGPASPALNQGS
With B2, the “fluorescence output after aminopeptidase M” value in series [8] was “the increase in the fluorescence output is proportional to the amount of phosphatase added per reaction”.
